# From patent US20250026851A1 (AKAMIS BIO, published 2025)
# T1: Human EpCAM on cells (human, UniProt P16422 24-314)
# T1 sequence: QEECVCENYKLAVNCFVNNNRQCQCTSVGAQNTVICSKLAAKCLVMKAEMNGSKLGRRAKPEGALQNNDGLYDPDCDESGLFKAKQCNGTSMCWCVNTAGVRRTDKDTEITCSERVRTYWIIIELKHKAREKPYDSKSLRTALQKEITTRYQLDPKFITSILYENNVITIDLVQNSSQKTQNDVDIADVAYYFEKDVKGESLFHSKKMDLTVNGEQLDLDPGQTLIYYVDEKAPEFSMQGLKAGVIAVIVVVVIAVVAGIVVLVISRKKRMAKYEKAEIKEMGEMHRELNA
# T2: human EpCAM/TROP-1 protein (Sino Biological Inc, #10694-H02H-50) (human, UniProt P16422 24-265)
# T2 construct: also called recombinant EpCAM protein; recombinant EpCAM
# T2 sequence (looked up): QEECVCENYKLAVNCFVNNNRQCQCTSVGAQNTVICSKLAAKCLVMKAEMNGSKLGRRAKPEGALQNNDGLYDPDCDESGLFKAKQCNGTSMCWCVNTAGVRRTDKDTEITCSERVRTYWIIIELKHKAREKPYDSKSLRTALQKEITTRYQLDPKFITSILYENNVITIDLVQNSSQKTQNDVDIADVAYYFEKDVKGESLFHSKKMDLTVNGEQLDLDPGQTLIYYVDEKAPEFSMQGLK
# Experiments:
# [1] = target: T1, Human EpCAM on cells; assay: cell-based or functional assay
# [2] = target: Human FAP (fibroblast activation protein) on cells (human, UniProt Q12884 1-760); assay: cell-based or functional assay
# [3] = target: T3, human FAP/seprase protein (Sino Biological Inc, 10464-H07H-10) (human, UniProt Q12884 26-760); assay: ELISA on plate-coated human FAP/seprase (100 ng/well), anti-His detection, A450
# T3 construct: also called recombinant FAP protein; FAP protein
# [4] = target: T2, human EpCAM/TROP-1 protein (Sino …); assay: ELISA on plate-coated human EpCAM/TROP-1 (50 ng/well), anti-His detection, A450
binder,measurement,setting,value
"EpCAM bispecific T-cell activator (anti-EpCAM scFv x anti-CD3 scFv, with N-terminal signal sequence and C-terminal deca-His affinity tag) (bispecific antibody) ELVMTQSPSSLTVTAGEKVTMSCKSSQSLLNSGNQKNYLTWYQQKPGQPPKLLIYWASTRESGVPDRFTGSGSGTDFTLTISSVQAEDLAVYYCQNDYSYPLTFGAGTKLEIKGGGGSGGGGSGGGGSEVQLLEQSGAELVRPGTSVKISCKASGYAFTNYWLGWVKQRPGHGLEWIGDIFPGSGNIHYNEKFKGKATLTADKSSSTAYMQLSSLTFEDSAVYFCARLRNWDEPMDYWGQGTTVTVSSGGGGSDVQLVQSGAEVKKPGASVKVSCKASGYTFTRYTMHWVRQAPGQGLEWIGYINPSRGYTNYADSVKGRFTITTDKSTSTAYMELSSLRSEDTATYYCARYYDDHYCLDYWGQGTTVTVSSGEGTSTGSGGSGGSGGADDIVLTQSPATLSLSPGERATLSCRASQSVSYMNWYQQKPGKAPKRWIYDTSKVASGVPARFSGSGSGTDYSLTINSLEAEDAATYYCQQWSSNPLTFGGGTKVEIKHHHHHHHHHH","EC50 of T cell-mediated lysis of DLD cells (LDH assay, 24 h, 8,000 DLD with 40,000 T-cells)",[1],7.4 ng/mL
"FAP bispecific T-cell activator (anti-FAP scFv x anti-CD3 scFv, with N-terminal signal sequence and C-terminal deca-His affinity tag) (bispecific antibody) DIVMTQSPDSLAVSLGERATINCKSSQSLLYSRNQKNYLAWYQQKPGQPPKLLIFWASTRESGVPDRFSGSGFGTDFTLTISSLQAEDVAVYYCQQYFSYPLTFGQGTKVEIKGGGGSGGGGSGGGGSQVQLVQSGAEVKKPGASVKVSCKTSRYTFTEYTIHWVRQAPGQRLEWIGGINPNNGIPNYNQKFKGRVTITVDTSASTAYMELSSLRSEDTAVYYCARRRIAYGYDEGHAMDYWGQGTLVTVSSGGGGSDVQLVQSGAEVKKPGASVKVSCKASGYTFTRYTMHWVRQAPGQGLEWIGYINPSRGYTNYADSVKGRFTITTDKSTSTAYMELSSLRSEDTATYYCARYYDDHYCLDYWGQGTTVTVSSGEGTSTGSGGSGGSGGADDIVLTQSPATLSLSPGERATLSCRASQSVSYMNWYQQKPGKAPKRWIYDTSKVASGVPARFSGSGSGTDYSLTINSLEAEDAATYYCQQWSSNPLTFGGGTKVEIKHHHHHHHHHH","EC50 of T cell-mediated lysis of NHDF cells (LDH assay, 24 h, 8,000 NHDF with 40,000 T-cells)",[2],3.2 ng/mL
same,EC50 of fibroblast (NHDF) lysis by LDH release after 24 h co-culture with PBMC T-cells,[2],~2.5 ng/mL
"Control (Anti-FHA) bispecific T-cell activator (anti-FHA scFv x anti-CD3 scFv, with N-terminal signal sequence and C-terminal deca-His affinity tag) (bispecific antibody) ELDIVMTQAPASLAVSLGQRATISCRASKSVSSSGYNYLHWYQQKPGQPPKLLIYLASNLESGVPARFSGSGSGTDFTLNIHPVEEEDAATYYCQHSREFPLTFGAGTKLEIKSSGGGGSGGGGGGSSRSSLEVQLQQSGPELVKPGASVKISCKTSGYTFTGYTMHWVRQSHGKSLEWIGGINPKNGGIIYNQKFQGKATLTVDKSSSTASMELRSLTSDDSAVYYCARRVYDDYPYYYAMDYWGQGTSVTVSSAKTTPPSVTSGGGGSDVQLVQSGAEVKKPGASVKVSCKASGYTFTRYTMHWVRQAPGQGLEWIGYINPSRGYTNYADSVKGRFTITTDKSTSTAYMELSSLRSEDTATYYCARYYDDHYCLDYWGQGTTVTVSSGEGTSTGSGGSGGSGGADDIVLTQSPATLSLSPGERATLSCRASQSVSYMNWYQQKPGKAPKRWIYDTSKVASGVPARFSGSGSGTDYSLTINSLEAEDAATYYCQQWSSNPLTFGGGTKVEIKHHHHHHHHHH",binding result,[3],no binding (tested: supernatant protein diluted 10-fold)
same,binding result,[4],no binding (tested: supernatant protein diluted 10-fold)
